Reference: US9540424B2, “Serum albumin binding molecules” (BRISTOL-MYERS SQUIBB COMPANY, priority 2010, dated 2017)

Legend:
[1] = test system: HEK cells stably expressing human β-klotho; assay: HEK β-Klotho pERK 1/2 assay; type: cell-based; settings: for Efficacy (%): % of His6-tagged FGF21 maximal activity; for activity in HEK β-klotho stable cells (specificity experiment): same dilutions as in parental HEK cells
Protocol: FGF21 induces ERK phosphorylation in the presence of β-klotho. Accordingly, the present HEK-β-klotho assay system was constructed to examine the functional activity of the FGF21-SABA fusions in vitro. Specifically, in vitro activity, potency (EC50) and efficacy (as a percentage of maximal activity observed from an FGF21 molecule that is not fused to a SABA), were determined for the SABA1-FGF21v1 (SEQ ID NO: 132) fusion protein, as measured in the HEK β-Klotho expressing stable cell pERK 1/2 assay using the non-fused His-tagged FGF21 (“FGFv1”; SEQ ID NO: 125) as a comparator.
A HEK cell line stably expressing human β-klotho was constructed. The human β-klotho construct encoded the full length protein under the control of a CMV promoter with a C-terminal FLAG tag. HEK 293 cells were transfected with the linearized cDNA using Lipofectamine 2000 (Invitrogen catalog #11668027) following the manufactures protocol using standard techniques. Positive clones were isolated after 14 days of selection in 600 ug/ml (Invitrogen catalog #10131) of geneticin in Dulbecco's Modified Eagle Medium with high glucose containing L-Glutamine, Hepes (Invitrogen catalog #12430054) and 10% FBS (HyClone catalog # SH30071). Positive stable clones were further characterized by Western Blot analysis and p-ERK activation by AlphaScreen (Perkin Elmer catalog # TGRES50K) analysis.
HEK cells stably expressing human β-klotho were plated at 20,000 cells/well in 96 well tissue culture plates in DMEM high glucose media (Gibco) containing 10% (v/v) FBS (Hyclone) and 600 μg/ml G418 (Gibco). The following day, the media was removed and replaced with DMEM high glucose media without serum and the cells were incubated overnight. The morning of the third day the serum free media was removed and the cells were incubated for a total of seven minutes with dilutions of the proteins made in PBS containing 3% (w/v) fatty acid free human serum albumin. Dilutions were tested in triplicate, one well on each of three plates. At the end of the seven minute incubation, the protein dilutions were removed and 100 μl of 1x AlphaScreen lysis buffer (Perkin-Elmer) was added per well and allowed to incubate with shaking for approximately 10-15 minutes. The plates containing the cellular lysates were frozen at −80° C. for at least 30 minutes or until ready to assay. Four μl from each well of thawed cell lysate was analyzed for pERK 1/2 using the Surefire AlphaScreen pERK 1/2 kit (Perkin Elmer) using 384 well white Proxiplates (Perkin Elmer) following the manufacturer's directions. Plates were incubated at room temperature for two hours in the dark and then read on an Envision 2103 Multiplate reader (Perkin Elmer). Data were analyzed using Graph Pad Prism software using a non-linear regression analysis.

[2] = test system: parental HEK cells, which do not express β-klotho; assay: pERK 1/2 specificity assay in parental HEK cells; type: cell-based, human
Source text: FGF1 was used as a positive control in those experiments.

diabetic ob/ob mice = assay: Plasma glucose lowering in diabetic ob/ob mice, 7 days daily s.c.; type: in vivo, mouse; settings: day 7; for lowering of plasma glucose compared to the PBS vehicle control: SABA1-FGF21v1 1.0 mg/kg, His-tagged FGF21 0.3 mg/kg s.c. daily; for magnitude of glucose lowering: […] hours post dose
Protocol: (§1) Thus, monitoring plasma glucose levels in diabetic ob/ob mice represents one way that the functional activity of the FGF21-SABA fusion proteins can be assessed. Beginning at 8 weeks of age, diabetic ob/ob mice received daily subcutaneous doses for 7 days (n=8 per group). All protocols were approved by the BMS ACUC committee. Fed glucose levels were examined both 24 hr and 3 hr post-dose on day 7 beginning at 8:00 AM. His-tagged FGF21 and SABA1-FGF21v1 were formulated in PBS and dosed at 0.3 mg/kg, and 1.0 mg/kg. respectively.
(§2) To evaluate the efficacy of SABA1-FGF21v1 bound to human albumin, the fusion protein (1 mg/kg) was incubated with a molar excess of human serum albumin (6 mg/kg) and the mixture was injected in an additional group (q.d. s.c. for 7 days). Human serum albumin (6 mg/kg) was used as an additional control group.

[3] = Plasma exposure in the ob/ob mouse efficacy study; type: in vivo, ob/ob mice; settings: His6-tagged FGF21 0.3 mg/kg, SABA1-FGF21v1 1 mg/kg, without HSA; for Plasma Concentration: 3 hours post dose; for Plasma Concentration (ng/ml): […] hours post dose
Protocol: as §1, §2
The exposure of SABA1-FGF21v1 is greater in the presence of human serum albumin than in its absence.
(§3) Various in vivo studies were conducted in mice and monkeys to characterize the pharmacokinetics of His-tagged FGF21 and SABA1-FGF21v1. An ELISA-based ligand binding assay was used to measure the His-tagged FGF21 and SABA1-FGF21v1 in all mouse and monkey plasma samples.

[4] = Pharmacokinetics of His-tagged FGF21 and SABA1-FGF21v1 in mice; type: in vivo, CD-1 mice; ob/ob mice; settings: for steady-state volume of distribution (Vss) / terminal half-life (T1/2) / total body plasma clearance (CLTp): CD-1 mice, intravenous, His-tagged FGF21 1 mg/kg, SABA1-FGF21v1 1.6 mg/kg
Protocol: as §3
(§4) Following subcutaneous administration, His-tagged FGF21 was well absorbed.
(§5) Following subcutaneous administration, SABA1-FGF21v1 was well absorbed.
SABA1-FGF21v1 was also administered to ob/ob mice at 1 mg/kg subcutaneously after pre-mix with human serum albumin (6 mg/kg).

[5] = Pharmacokinetics of His-tagged FGF21 and SABA-FGF21 fusions in monkeys; type: in vivo, cynomolgus monkeys; settings: for CL (total body plasma clearance, CLTp) / T½ (terminal half-life) / Vdss (steady-state volume of distribution, Vss) / absolute subcutaneous bioavailability / apparent subcutaneous terminal half-life (T1/2): monkeys; for CL (total body plasma clearance, CLTp) / T½ (terminal half-life) / Vdss (steady-state volume of distribution, Vss): intravenous, His-tagged FGF21 0.5 mg/kg, SABA1-FGF21v1 0.08 mg/kg
Protocol: as §3, §4, §5

[6] = cyno, SC, 0.08 mg/kg, N = 3, mean ± SD

B1: SABA1-FGF21v1: SABA1-FGF21 fusion, SEQ ID NO: 132; 293 aa; DNA SEQ ID NO: 184 (protein)
chain: MGVSDVPRDLEVVAATPTSLLISWHSYYEQNSYYRITYGETGGNSPVQEFTVPYSQTTATISGLKPGVDYTITVYAVYGSKYYYPISINYRTEIEKPSQGSGSGSGSGSGSGSPIPDSSPLLQFGGQVRQRYLYTDDAQQTEAHLEIREDGTVGGAADQSPESLLQLKALKPGVIQILGVKTSRFLCQRPDGALYGSLHFDPEACSFRELLLEDGYNVYQSEAHGLPLHLPGNKSPHRDPAPRGPARFLPLPGLPPALPEPPGILAPQPPDVGSSDPLSMVGPSQGRSPSYAS
- right shift of potency (EC50) relative to the His-tagged FGF21 [1]: approximately 15 fold
- Efficacy (%) ([1]; mean ± std. dev., N ≧4): 62%
- Efficacy (%) ([1]; mean ± std. dev., N ≧4, listed as SABAl-FGF21v1): 62 ± 9%
- activity in HEK β-klotho stable cells (specificity experiment) [1]: showed activity
- stimulation of pERK 1/2 levels in parental HEK cells [2]: neither His-tagged FGF21 nor SABA1-FGF21v1 stimulated pERK 1/2 levels
- lowering of plasma glucose compared to the HSA control (diabetic ob/ob mice; 3 hours post dose, 1 mg/kg with human serum albumin 6 mg/kg, q.d. s.c.): 46%
- lowering of plasma glucose compared to the PBS vehicle control (diabetic ob/ob mice; 3 hours post dose): 29%
- magnitude of glucose lowering (diabetic ob/ob mice; 1.0 mg/kg s.c. daily, without HSA): 7%
- magnitude of glucose lowering (diabetic ob/ob mice; 1 mg/kg with HSA 6 mg/kg): 41%
- Plasma Concentration [3]: 1370 ng/mL
- Plasma Concentration (ng/ml) [3]: <LLOQ
- steady-state volume of distribution (Vss) [4]: 0.12 L/kg
- terminal half-life (T1/2) [4]: 1.9 h
- total body plasma clearance (CLTp) [4]: 2.9 mL/min/kg
- apparent subcutaneous terminal half-life (T1/2) ([4]; mice, subcutaneous): 1.9 h
- apparent subcutaneous terminal half-life (T1/2) ([4]; ob/ob mice, 1 mg/kg subcutaneously after pre-mix with human serum albumin (6 mg/kg)): 9 h
- AUCtot ([5]; cyno, IV, 0.08 mg/kg, N = 2): 3.621 µM·h
- CLTp ([5]; cyno, IV, 0.08 mg/kg, N = 2): 0.0118 mL/min/kg
- T½ ([5]; cyno, IV, 0.08 mg/kg, N = 2): 97 h
- Vss ([5]; cyno, IV, 0.08 mg/kg, N = 2): 0.076 L/kg
- F (%) ([5]; cyno, SC, 0.08 mg/kg): 68%
- AUCtot [5, 6]: 2.454 ± 0.779 µM·h
- Cmax [5, 6]: 22.4 ± 10.8 nM
- Tmax [5, 6]: 13 ± 9 h
- CL (total body plasma clearance, CLTp) [5]: 0.012 mL/min/kg
- T½ (terminal half-life) [5]: 97 h
- Vdss (steady-state volume of distribution, Vss) [5]: 0.08 L/kg
- absolute subcutaneous bioavailability [5]: 68%
- apparent subcutaneous terminal half-life (T1/2) [5]: 67 h

B2: His-tagged FGF21: non-fused His-tagged FGF21 (“FGFv1”; SEQ ID NO: 125) used as a comparator (protein)
chain: MHHHHHHPIPDSSPLLQFGGQVRQRYLYTDDAQQTEAHLEIREDGTVGGAADQSPESLLQLKALKPGVIQILGVKTSRFLCQRPDGALYGSLHFDPEACSFRELLLEDGYNVYQSEAHGLPLHLPGNKSPHRDPAPRGPARFLPLPGLPPALPEPPGILAPQPPDVGSSDPLSMVGPSQGRSPSYAS
modifications: His6 tag
- Efficacy (%) ([1]; mean ± std. dev., N ≧4): 100%
- EC50 ([1]; pERK 1/2, in PBS with 3% human serum albumin, mean ± std. dev., N ≧4): 7 ± 4 nM
- activity in HEK β-klotho stable cells (specificity experiment) [1]: showed activity
- stimulation of pERK 1/2 levels in parental HEK cells [2]: neither His-tagged FGF21 nor SABA1-FGF21v1 stimulated pERK 1/2 levels
- lowering of plasma glucose compared to the PBS vehicle control (diabetic ob/ob mice; 3 hours post dose): comparable
- Plasma Concentration [3]: 99 ng/mL
- Plasma Concentration (ng/ml) [3]: <LLOQ
- steady-state volume of distribution (Vss) [4]: 0.27 L/kg
- terminal half-life (T1/2) [4]: 0.5 h
- total body plasma clearance (CLTp) [4]: 12 mL/min/kg
- absolute subcutaneous bioavailability ([4]; mice, subcutaneous): ~100%
- apparent subcutaneous terminal half-life (T1/2) ([4]; mice, subcutaneous): 0.6 h
- CL (total body plasma clearance, CLTp) [5]: 6.4 mL/min/kg
- T½ (terminal half-life) [5]: 1.9 h
- Vdss (steady-state volume of distribution, Vss) [5]: 1 L/kg
- absolute subcutaneous bioavailability [5]: 65%
- apparent subcutaneous terminal half-life (T1/2) [5]: 4.3 h
